Experiments:
[1] = biological target: integrin αMβ2 (Homo sapiens) (UniProt P11215); test: SPR; conditions: cited from earlier work
[2] = biological target: T1, soluble, purified mouse αMβ2 integrin (ectodomain heterodimer) (mouse, UniProt P05555 17-1105; P11835 24-701); test: SPR; Biacore X100; M1F5 Fab amine-coupled to both flow cells of a CM5 chip (~2,500 RU); ~10 RU RTX (10 nM) captured on flow cell 2 in each cycle; mouse αMβ2 at 6.13 to 200 nM flowed for 180 s, dissociation 600 s; 10 mM HEPES pH 7.4, 150 mM NaCl, 1 mM CaCl2, 1 mM MgCl2, 0.05% Tween 20; global 1:1 binding model; conditions: both partners purified
T1 construct: also called CR3; MAC-1
T1 sequence (P05555 other isoform, or with tags, fused parts or gaps, chain 1 of 2): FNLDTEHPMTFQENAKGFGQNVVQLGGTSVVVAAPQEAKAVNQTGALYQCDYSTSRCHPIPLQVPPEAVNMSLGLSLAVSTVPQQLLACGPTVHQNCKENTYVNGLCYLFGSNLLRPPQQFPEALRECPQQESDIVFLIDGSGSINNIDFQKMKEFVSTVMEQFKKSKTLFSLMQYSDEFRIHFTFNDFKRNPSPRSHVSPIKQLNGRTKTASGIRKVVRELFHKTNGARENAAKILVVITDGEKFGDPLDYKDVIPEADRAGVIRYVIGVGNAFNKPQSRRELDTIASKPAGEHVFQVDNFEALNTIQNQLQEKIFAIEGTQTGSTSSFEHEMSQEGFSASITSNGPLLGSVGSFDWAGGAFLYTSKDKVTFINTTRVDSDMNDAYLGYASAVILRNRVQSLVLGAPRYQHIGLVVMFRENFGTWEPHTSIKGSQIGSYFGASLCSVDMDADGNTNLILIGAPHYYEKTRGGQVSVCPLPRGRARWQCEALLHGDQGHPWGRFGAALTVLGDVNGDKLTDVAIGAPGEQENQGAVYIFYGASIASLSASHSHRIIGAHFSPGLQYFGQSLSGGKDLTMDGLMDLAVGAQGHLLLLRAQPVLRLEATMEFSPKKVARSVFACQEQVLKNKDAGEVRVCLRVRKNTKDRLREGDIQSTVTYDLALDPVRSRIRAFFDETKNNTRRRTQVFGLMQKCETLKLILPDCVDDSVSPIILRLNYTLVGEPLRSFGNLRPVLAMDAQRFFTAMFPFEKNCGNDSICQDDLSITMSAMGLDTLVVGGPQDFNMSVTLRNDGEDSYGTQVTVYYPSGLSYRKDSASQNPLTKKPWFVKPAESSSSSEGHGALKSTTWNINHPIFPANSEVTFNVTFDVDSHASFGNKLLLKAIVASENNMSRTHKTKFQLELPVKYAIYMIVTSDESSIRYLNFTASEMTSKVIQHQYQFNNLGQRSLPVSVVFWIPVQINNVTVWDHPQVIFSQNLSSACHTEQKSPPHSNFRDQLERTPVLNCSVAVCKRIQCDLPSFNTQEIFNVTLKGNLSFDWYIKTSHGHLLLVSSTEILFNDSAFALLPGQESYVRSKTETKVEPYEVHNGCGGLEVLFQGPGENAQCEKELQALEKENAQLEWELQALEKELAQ
T1 sequence (P11835 other isoform, or with tags, fused parts or gaps, chain 2 of 2): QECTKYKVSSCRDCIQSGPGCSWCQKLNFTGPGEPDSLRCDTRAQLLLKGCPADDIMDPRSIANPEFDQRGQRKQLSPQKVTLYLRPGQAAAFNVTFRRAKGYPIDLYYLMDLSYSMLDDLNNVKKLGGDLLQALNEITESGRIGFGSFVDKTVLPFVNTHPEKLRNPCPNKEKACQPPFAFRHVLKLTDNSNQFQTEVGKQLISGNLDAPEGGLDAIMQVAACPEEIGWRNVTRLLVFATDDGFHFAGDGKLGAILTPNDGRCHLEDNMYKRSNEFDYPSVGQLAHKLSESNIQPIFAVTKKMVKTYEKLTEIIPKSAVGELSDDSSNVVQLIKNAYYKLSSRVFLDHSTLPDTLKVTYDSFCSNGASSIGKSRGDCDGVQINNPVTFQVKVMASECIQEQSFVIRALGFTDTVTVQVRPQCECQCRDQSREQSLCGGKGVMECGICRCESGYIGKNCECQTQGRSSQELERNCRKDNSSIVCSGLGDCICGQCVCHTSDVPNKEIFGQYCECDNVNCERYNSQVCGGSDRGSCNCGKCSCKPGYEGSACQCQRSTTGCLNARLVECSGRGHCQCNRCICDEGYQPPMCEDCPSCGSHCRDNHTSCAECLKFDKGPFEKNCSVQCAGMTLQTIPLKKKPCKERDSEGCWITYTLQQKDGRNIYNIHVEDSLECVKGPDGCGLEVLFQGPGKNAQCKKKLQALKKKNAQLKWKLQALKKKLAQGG

Molecule | Kd [1] | Kd [2] | koff [2] | kon [2]
adenylate cyclase toxin RTX751 (from UniProt P0DKX7) | 57 nM |  |  | 
RTX751 (RTX domain of the Bordetella pertussis adenylate cyclase toxin, residues 751 to 1706) (domain or fragment, Cloned into the NheI and BamHI sites of pET28a+; The vector may add N-terminal residues (His tag, thrombin site) before the Strep tag; also called recombinant RTX751) ANSDGLRKMLADLQAGWNASSVIGVQTTEISKSALELAAITGNADNLKSVDVFVDRFVQGERVAGQPVVLDVAAGGIDIASRKGERPALTFITPLAAPGEEQRRRTKTGKSEFTTFVEIVGKQDRWRIRDGAADTTIDLAKVVSQLVDANGVLKHSIKLDVIGGDGDDVVLANASRIHYDGGAGTNTVSYAALGRQDSITVSADGERFNVRKQLNNANVYREGVATQTTAYGKRTENVQYRHVELARVGQLVEVDTLEHVQHIIGGAGNDSITGNAHDNFLAGGSGDDRLDGGAGNDTLVGGEGQNTVIGGAGDDVFLQDLGVWSNQLDGGAGVDTVKYNVHQPSEERLERMGDTGIHADLQKGTVEKWPALNLFSVDHVKNIENLHGSRLNDRIAGDDQDNELWGHDGNDTIRGRGGDDILRGGLGLDTLYGEDGNDIFLQDDETVSDDIDGGAGLDTVDYSAMIHPGRIVAPHEYGFGIEADLSREWVRKASALGVDYYDNVRNVENVIGTSMKDVLIGDAQANTLMGQGGDDTVRGGDGDDLLFGGDGNDMLYGDAGNDTLYGGLGDDTLEGGAGNDWFGQTQAREHDVLRGGDGVDTVDYSQTGAHAGIAAGRIGLGILADLGAGRVDKLGEAGSSAYDTVSGIENVVGTELADRITGDAQANVLRGAGGADVLAGGEGDDVLLGGDGDDQLSGDAGRDRLYGEAGDDWFFQDAANAGNLLDGGDGRDTVDFSGPGRGLDAGAKGVFLSLGKGFASLMDEPETSNVLRNIENAVGSARDDVLIGDAGANVLNGLAGNDVLSGGAGDDVLLGDEGSDLLSGDAGNDDLFGGQGDDTYLFGVGYGHDTIYESGGGHDTIRINAGADQLWFARQGNDLEIRILGTDDALTVHDWYRDADHRVEIIHAANQAVDQAGIEKLVEAMAQYPDPGAAAAAPPAARVPDTLMQSLAVNWR |  | 52 nM | 0.0028 s⁻¹ | 55000 M⁻¹ s⁻¹
